How the values were obtained:
[1] = target: T1, endogenously expressed human MSR1 on PMA-treated THP-1 cells (Homo sapiens, UniProt P21757); experiment: Electrochemiluminescence (ECL) antibody binding assay on cells
T1 construct: endogenously expressed human MSR1; endogenous in cells; host or cells: THP-1 cells treated with 200 nM PMA
T1 sequence (P21757 1-451): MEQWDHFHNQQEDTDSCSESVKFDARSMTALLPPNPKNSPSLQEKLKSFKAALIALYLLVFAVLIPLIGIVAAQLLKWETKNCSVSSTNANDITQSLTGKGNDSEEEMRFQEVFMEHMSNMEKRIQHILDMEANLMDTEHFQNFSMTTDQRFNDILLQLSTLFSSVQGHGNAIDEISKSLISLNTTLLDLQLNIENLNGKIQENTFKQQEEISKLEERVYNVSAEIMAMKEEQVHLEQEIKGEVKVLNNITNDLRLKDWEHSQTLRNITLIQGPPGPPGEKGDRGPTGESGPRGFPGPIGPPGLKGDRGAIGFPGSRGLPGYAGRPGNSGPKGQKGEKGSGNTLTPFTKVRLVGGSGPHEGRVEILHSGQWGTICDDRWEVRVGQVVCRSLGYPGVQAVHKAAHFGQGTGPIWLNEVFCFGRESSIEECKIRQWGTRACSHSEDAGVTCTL
Method: The ability of anti-MSR1 monoclonal antibodies to bind to human or monkey MSR1 expressing cells was determined using electrochemiluminescence (ECL) based detection.
Two cell lines overexpressing either human or monkey MSR1 were generated. To generate the human MSR1 overexpressing cell line, human embryonic kidney (HEK) 293 cells were engineered by transduction with hygromycin resistant lentiviral vector encoding full length human MSR1 (hMSR1, amino acids M1-L451 of accession number NP_619729.1) with a C-terminal Myc tag. The resulting cell line is referred to as HEK293.Myc.hMSR1. Similarly, to generate the monkey MSR1 overexpressing cell line, HEK293 cells were engineered by transfection with the geneticin resistant expression plasmid encoding full length monkey MSR1 (Macaca fascicularis, mfMSR1, amino acids M1-L451 of accession number XP_005562705.1). The resulting cell line is referred to as HEK293.mfMSR1 cells. To measure the ability of antibodies to bind to endogenously expressed human MSR1, THP-1 human monocytic cells were treated with 200 nM of phorbol 12-myristate 13-acetate (PMA; Sigma, Cat #P8139) for 72 hours to induce high MSR1 expression prior to antibody binding.
Luminescence intensity, measured in relative light units (RLU), was recorded to indicate the binding intensity of each antibody at the range of concentrations.

[2] = system: MSR1 negative B16F10.9 cells; experiment: Flow cytometry cell surface binding, MSR1 negative cells; set-up: species or system mouse
Method: Relative cell surface binding of the anti-MSR1 antibodies to mouse MSR1 expressing cells was determined by flow cytometry using MSR1 positive RAW264.7 cells (ATCC, Catalog #TIB-71) and MSR1 negative B16F10.9 cells (Lin et al. 1998. PNAS 95:8829-8834). For the assay, cells were plated in PBS without calcium and magnesium (VWR Cat #45000-446) and 2% FBS (Saradigm Cat #1500-500) (Staining Buffer) in 96 well V-bottom plates (Axygen Scientific, Cat #P-96-450-V-C-S). To block binding to Fc receptors, RAW264.7 cells were incubated for 30 minutes at 4° C. with 500 μg/mL mouse IgG (Jackson ImmunoResearch, Cat #015-000-003) diluted in staining buffer, while B16F10.9 cells remained in staining buffer. Following Fc receptor blocking, 10 μg/mL of anti-MSR1 antibodies or an isotype control antibody were added to the cells and were subsequently incubated for 30 minutes on ice. For a positive control, a commercial anti-mouse MSR1 (Sino Biological, Cat #50129-R004) antibody was used, while a rabbit IgG antibody (Thermo Scientific, Cat #26102) was used as a negative control. […] Cells were subsequently washed and fixed using a 50% solution of Cytofix (BD Biosciences, Cat #554655) diluted in PBS. […] The signal to noise (S/N) was determined by calculating the ratio of the anti-MSR1 antibodies or the control antibodies MFI to the unstained sample MFI (Table 16).

B1: H1H21234N-N297Q: "An anti-MSR1 antibody H1H21234N containing a N297Q mutation, which eliminates N-linked glycosylation of the Fc at this site" (antibody, V domains shown)
VH: QVQLQESGPGLVKPSETLSLTCTVTGGSISRNYWSWIRQPPGKGLEWIGYIYYSGSIDYNPSLKSRVTISVDTSKNQFSLKLSSMTAADTAVYYCARDRWNWKYGMDVWGQGTTVIVSS
VL: EIVLTQSPGTLSLSPGERATLSCRASQTVRNNYLAWYHQKPGQAPRLLIYGASSRATGIPDRFSGSGSGTDFTLTISRLEPEDFTVYYCHQYGNSPWTFGQGTKMEIKR
[1]
  Ratio of 11 nM Antibody Binding Signal (RLU) to isotype control, PMA-treated THP-1: 25
[2]; 10 μg/mL antibody, flow cytometry
  B16F10.9 MFI: 3499
[2]; ratio of antibody MFI to unstained sample MFI
  B16F10.9 S/N: 1
